Experimental findings from US20260092093A1 (TJ BIOPHARMA SHANGHAI, published 2026) are described below.

Assay [1] concerns the target T1, hIL-18Rα ECD-Fc fusion protein (human, UniProt Q13478 22-329).
T1 construct: extracellular domain; captured on Protein A sensor
T1 sequence (looked up): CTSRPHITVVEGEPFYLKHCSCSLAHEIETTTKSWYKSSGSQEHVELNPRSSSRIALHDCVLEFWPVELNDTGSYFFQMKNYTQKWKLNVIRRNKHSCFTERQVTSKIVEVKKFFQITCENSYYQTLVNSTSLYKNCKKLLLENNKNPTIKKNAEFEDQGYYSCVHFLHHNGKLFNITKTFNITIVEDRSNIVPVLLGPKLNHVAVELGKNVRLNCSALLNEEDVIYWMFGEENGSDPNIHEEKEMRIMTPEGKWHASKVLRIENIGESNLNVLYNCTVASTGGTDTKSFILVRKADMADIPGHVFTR
Put plainly: BLI (Octet RED96), hIL-18Rα ECD-Fc on Protein A sensor. The method, then:
The affinities of IL-18 variant polypeptides for hIL-18Rα were assessed by Biolayer Interferometry (BLI) on Octet RED96 using Protein A sensor coated with hIL-18Rα ECD-Fc fusion protein, and WT hIL-18 was used as a control.

Assay [2] addresses T2, recombinant hIL-18Rα extracellular domain (human, UniProt Q13478 22-329, biotin label (selection) or fluorescent probe (single-clone FACS), sites not given).
T2 construct: extracellular domain; also called hIL-18Rα ECD; hIL-18Rα-ECD
T2 sequence (looked up): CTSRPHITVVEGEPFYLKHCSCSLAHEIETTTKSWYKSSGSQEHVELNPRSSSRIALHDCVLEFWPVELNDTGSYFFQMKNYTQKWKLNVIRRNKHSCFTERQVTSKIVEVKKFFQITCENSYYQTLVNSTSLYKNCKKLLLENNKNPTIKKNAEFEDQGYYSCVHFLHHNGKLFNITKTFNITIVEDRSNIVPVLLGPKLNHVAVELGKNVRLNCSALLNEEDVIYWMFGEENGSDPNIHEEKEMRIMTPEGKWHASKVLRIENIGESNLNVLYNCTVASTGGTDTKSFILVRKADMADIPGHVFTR
In words: single-clone FACS, yeast display, 10 nM labelled hIL-18Rα ECD. How it is done: Following the screens described in Example 2, single clone FACS analysis was performed to verify the binding of selected yeast cell surface-expressed IL-18 variant polypeptides from Round 4 and Round 5 to 10 nM hIL-18Rα-ECD. Briefly, each yeast clone at the same density was incubated with 10 nM IL-18Rα-ECD labeled by fluorescent probe, respectively, followed by washing step. Then the ratio of fluorescent positive IL-18Rα ECD binding yeasts in the population of each clone were analyzed.

B1: IL-18 variant polypeptide M1 (ligand)
chain: YFPKLKSKLSVIRNLNDQVLFIDQGNRPLFEDMTDSDCRDNAPRTIFIISMYKHSDRRGMAVTISVKCEKISTLSCENKIISFKEMNPPDVIKDTKSDIIFFQVSVPGHDNKMQFESSSYEGYFLACEKERDLFKLILKKEDELGDRSIMFTVQNED
In the case of B1, in assay [1], the Kd amounted to 2030 nM, the “Response (nm)” value was determined as 0.0186 nm, the koff was found to be 0.111 s⁻¹ and the kon turned out to be 54400 M⁻¹ s⁻¹. The “% of fluorescence positive cells” value in assay [2] came to 89.8%.

B2: SEQ ID NO 115 (ligand)
chain: YFPKLGSKLSVIRNLNDQVLFIDQGNRPLFEDMTDSDCRDNAPRTIFIISMYKISHDRGMAVTISVKCEKISTLSCENKIISFKEMNPPDTIKDTKSDIIFFQSSVPGHDNKMQFESSSYEGYFLACEKERDLFKLILKKEDELGDRSIMFTVQNED
B2: in assay [2], the “% of fluorescence positive cells” value is 0.35%.

B3: IL-18 variant polypeptide M4 (ligand)
chain: YFPKLKSKLSVIRNLNDQVLFIDQGNRPLFEDMTDSDCRDNAPRTIFIISMYKWSGVRGMAVTISVKCEKISTLSCENKIISFKEMNPPDVIKDTKSDIIFFQFSVPGHDNKMQFESSSYEGYFLACEKERDLFKLILKKEDELGDRSIMFTVQNED
On to B3, for which, in assay [1], binding was put at a Kd of 39.1 nM, the “Response (nm)” value is 0.0326 nm, the koff is 0.017 s⁻¹ and the kon was found to be 436000 M⁻¹ s⁻¹. Also, the “% of fluorescence positive cells” value in assay [2] worked out at 44.9%.

B4: SEQ ID NO 113 (ligand)
chain: YFPKLRSKLSVIRNLNDQVLFIDQGNRPLFEDMTDSDCRDNAPRTIFIISMYKISISRGMAVTISVKCEKISTLSCENKIISFKEMNPPDNIKDTKSDIIFFQRSVPGHDNKMQFESSSYEGYFLACEKERDLFKLILKKEDELGDRSIMFTVQNED
B4: the “% of fluorescence positive cells” value in assay [2] turned out to be 0.61%.

B5: IL-18 variant polypeptide M12 (ligand)
chain: YFPKLKSKLSVIRNLNDQVLFIDQGNRPLFEDMTDSDCRDNAPRTIFIISMYKGSGARGMAVTISVKCEKISTLSCENKIISFKEMNPPDTIKDTKSDIIFFQRSVPGHDNKMQFESSSYEGYFLACEKERDLFKLILKKEDELGDRSIMFTVQNED
Regarding B5, in assay [1], the Kd amounted to 24.9 nM, the “Response (nm)” value worked out at 0.186 nm, the koff was 0.0107 s⁻¹ and the kon was determined as 427000 M⁻¹ s⁻¹. Also, the “% of fluorescence positive cells” value in assay [2] stood at 88.3%.

B6: SEQ ID NO 108 (ligand)
chain: YFPKLGSKLSVIRNLNDQVLFIDQGNRPLFEDMTDSDCRDNAPRTIFIISMYKQSHYRGMAVTISVKCEKISTLSCENKIISFKEMNPPDNIKDTKSDIIFFQRSVPGHDNKMQFESSSYEGYFLACEKERDLFKLILKKEDELGDRSIMFTVQNED
Regarding B6, the “% of fluorescence positive cells” value in assay [2] was 1.08%.

B7: IL-18 variant polypeptide M2 (ligand)
chain: YFSKLKSKLSVIRNLNDQVLFIDQGNRPLFEDMTDSDCRDNAPRTIFIISMYKWSPDRGMAVTISVKCEKISTLSCENKIISFKEMNPPDGIKDTKSDIIFFQTSVPGHDNKMQFESSSYEGYFLACEKERDLFKLILKKEDELGDRSIMFTVQNED
As to B7, in assay [1], the Kd stood at 12200 nM, the “Response (nm)” value came out at 0.0184 nm, the koff was 0.0499 s⁻¹ and the kon turned out to be 4090 M⁻¹ s⁻¹. Moreover, the “% of fluorescence positive cells” value in assay [2] is 91.6%.

B8: IL-18 variant polypeptide M10 (ligand)
chain: YFPKLRSKLSVIRNLNDQVLFIDQGNRPLFEDMTDSDCRDNAPRTIFIISMYKQSLWRGMAVTISVKCEKISTLSCENKIISFKEMNPPDSIKDTKSDIIFFQRSVPGHDNKMQFESSSYEGYFLACEKERDLFKLILKKEDELGDRSIMFTVQNED
With B8, in assay [1], the Kd came to 48.6 nM, the “Response (nm)” value was 0.0788 nm, the koff was 0.0235 s⁻¹ and the kon is 483000 M⁻¹ s⁻¹. Besides, the “% of fluorescence positive cells” value in assay [2] is 68.1%.

B9: SEQ ID NO 112 (ligand)
chain: YFPKLRSKLSVIRNLNDQVLFIDQGNRPLFEDMTDSDCRDNAPRTIFIISMYKHSTNRGMAVTISVKCEKISTLSCENKIISFKEMNPPDIIKDTKSDIIFFQISVPGHDNKMQFESSSYEGYFLACEKERDLFKLILKKEDELGDRSIMFTVQNED
As to B9, in assay [2], the “% of fluorescence positive cells” value was determined as 0.69%.

B10: IL-18 variant polypeptide M7 (ligand)
chain: YFPKLRSKLSVIRNLNDQVLFIDQGNRPLFEDMTDSDCRDNAPRTIFIISMYKHSTARGMAVTISVKCEKISTLSCENKIISFKEMNPPDAIKDTKSDIIFFQRSVPGHDNKMQFESSSYEGYFLACEKERDLFKLILKKEDELGDRSIMFTVQNED
For the molecule B10, in assay [1], the Kd was found to be 11.9 nM, the “Response (nm)” value is 0.0222 nm, the koff was found to be 0.0271 s⁻¹ and the kon stood at 2.27e+06 M⁻¹ s⁻¹. Further, the “% of fluorescence positive cells” value in assay [2] is 93.8%.

B11: SEQ ID NO 118 (ligand)
chain: YFPKLASKLSVIRNLNDQVLFIDQGNRPLFEDMTDSDCRDNAPRTIFIISMYKWSNARGMAVTISVKCEKISTLSCENKIISFKEMNPPDSIKDTKSDIIFFQRSVPGHDNKMQFESSSYEGYFLACEKERDLFKLILKKEDELGDRSIMFTVQNED
As for B11, the “% of fluorescence positive cells” value in assay [2] came out at 0.15%.

B12: IL-18 variant polypeptide M5 (ligand)
chain: YFEKLTSKLSVIRNLNDQVLFIDQGNRPLFEDMTDSDCRDNAPRTIFIISMYKWSPWRGMAVTISVKCEKISTLSCENKIISFKEMNPPDVIKDTKSDIIFFQTSVPGHDNKMQFESSSYEGYFLACEKERDLFKLILKKEDELGDRSIMFTVQKED
Regarding B12, in assay [1], binding was put at a Kd of 38.8 nM, the “Response (nm)” value was determined as 0.0468 nm, the koff was determined as 0.0149 s⁻¹ and the kon is 383000 M⁻¹ s⁻¹. In addition, the “% of fluorescence positive cells” value in assay [2] came out at 96%.

B13: IL-18 variant polypeptide M3 (ligand)
chain: YFPKLKSKLSVIRNLNDQVLFIDQGNRPLFEDMTDSDCRDNAPRTIFIISMYKWSHVRGMAVTISVKCEKISTLSCENKIISFKEMNPPDAIKDTKSDIIFFQYSVPGHDNKMQFESSSYEGYFLACEKERDLFKLILKKEDELGDRSIMFTVQNED
As for B13, in assay [1], the Kd is 2140 nM, the “Response (nm)” value was found to be 0.057 nm, the koff was determined as 0.0431 s⁻¹ and the kon came out at 20100 M⁻¹ s⁻¹. For the same molecule, in assay [2], the “% of fluorescence positive cells” value was determined as 93.3%.

B14: SEQ ID NO 111 (ligand)
chain: YFPKLESKLSVIRNLNDQVLFIDQGNRPLFEDMTDSDCRDNAPRTIFIISMYKYSSKRGMAVTISVKCEKISTLSCENKIISFKEMNPPDGIKDTKSDIIFFQRSVPGHDNKMQFESSSYEGYFLACEKERDLFKLILKKEDELGDRSIMFTVQNED
As for B14, the “% of fluorescence positive cells” value in assay [2] was determined as 0.69%.

B15: IL-18 variant polypeptide M13 (ligand)
chain: YFPKLKSKLSVIRNLNDQVLFIDQGNRPLFEDMTDSDCRDNAPRTIFIISMYKQSIWRGMAVTISVKCEKISTLSCENKIISFKEMNPPDNIKDTKSDIIFFQRSVPGHDNKMQFESSSYEGYFLACEKERDLFKLILKKEDELGDRSIMFTVQNED
For the molecule B15, in assay [1], the Kd amounted to 11.6 nM, the “Response (nm)” value came to 0.31 nm, the koff amounted to 0.0038 s⁻¹ and the kon is 327000 M⁻¹ s⁻¹. Besides, in assay [2], the “% of fluorescence positive cells” value amounted to 96.4%.

B16: SEQ ID NO 109 (ligand)
chain: YFKKLPSKLSVIRNLNDQVLFIDQGNRPLFEDMTDSDCRDNAPRTIFIISMYKLSSERGMAVTISVKCEKISTLSCENKIISFKEMNPPDNIKDTKSDIIFFQRSVPGHDNKMQFESSSYEGYFLACEKERDLFKLILKKEDELGDRSIMFTVQNED
Turning to B16, in assay [2], the “% of fluorescence positive cells” value was 0.98%.

B17: SEQ ID NO 110 (ligand)
chain: YFPKLNSKLSVIRNLNDQVLFIDQGNRPLFEDMTDSDCRDNAPRTIFIISMYKLSPRRGMAVTISVKCEKISTLSCENKIISFKEMNPPDNIKDTKSDIIFFQRSVPGHDNKMQFESSSYEGYFLACEKERDLFKLILKKEDELGDRSIMFTVQNED
Take B17: in assay [2], the “% of fluorescence positive cells” value was found to be 0.71%.

B18: IL-18 variant polypeptide M9 (ligand)
chain: YFPKLRSKLSVIRNLNDQVLFIDQGNRPLFEDMTDSDCRDNAPRTIFIISMYKWSRARGMAVTISVKCEKISTLSCENKIISFKEMNPPDSIKDTKSDIIFFQSSVPGHDNKMQFESSSYEGYFLACEKERDLFKLILKKEDELGDRSIMFTVQNED
In the case of B18, in assay [1], the Kd is 4.88 nM, the “Response (nm)” value was under 0.02 nm, the koff is 0.0108 s⁻¹ and the kon is 2.21e+06 M⁻¹ s⁻¹. The “% of fluorescence positive cells” value in assay [2] was determined as 36.1%.

B19: IL-18 variant polypeptide M11 (ligand)
chain: YFPKLRSKLSVIRNLNDQVLFIDQGNRPLFEDMTDSDCRDNAPRTIFIISMYKSSRNRGMAVTISVKCEKISTLSCENKIISFKEMNPPDGIKDTKSDIIFFQTSVPGHDNKMQFESSSYEGYFLACEKERDLFKLILKKEDELGDRSIMFTVQNED
On to B19, for which, in assay [1], binding was characterised by a dissociation constant (Kd) of 68.2 nM, the “Response (nm)” value came out at 0.08 nm, the koff amounted to 0.0189 s⁻¹ and the kon is 277000 M⁻¹ s⁻¹. Moreover, in assay [2], the “% of fluorescence positive cells” value was 83.6%.
